This note sets out measurements from paper PMC6086869, “Accelerated pharmaceutical protein development with integrated cell free expression, purification, and bioconjugation” (Scientific Reports, 2018).

The target of series [1] is Peptide 3 (NpuDnaEC16 capture peptide with ANP photocleavable residue). Put plainly: pull-down; peptide 3 immobilised by its His6 on HisPur Ni-NTA magnetic beads; hCNTF-NpuDnaE(ΔC16) in BYL or HeLa CFPS matrix, overnight, room temperature; captured share from Western blots of the matrix before and after capture; the capture is followed by protein trans splicing, which ligates hCNTF covalently to the peptide's C-terminal stretch.

Series [2] deals with the molecule itself. Put plainly: SDS-PAGE without β-mercaptoethanol in the loading buffer, Western blot; purified hCNTF standard; anti-hCNTF polyclonal antibody for detection.

Turning to “hCNTF-NpuDnaE(ΔC16) synthesised in the HeLa cell free system (from UniProt P26441 1-200)”, the amount of hCNTF bound to the beads in series [1] was 1.14 μg/mg beads.
On the same count and under the same terms, the value for “hCNTF-NpuDnaE(ΔC16) synthesised in the tobacco BY-2 lysate (BYL) cell free system (from UniProt P26441 1-200)” was 0.42 μg/mg beads.

B1: His6-hCNTF (purified human ciliary neurotrophic factor used as standard) (natural protein, UniProt P26441 1-200, looked up)
chain: MAFTEHSPLTPHRRDLCSRSIWLARKIRSDLTALTESYVKHQGLNKNINLDSADGMPVASTDQWSELTEAERLQENLQAYRTFHVLLARLLEDQQVHFTPTEGDFHQAIHTLLLQVAAFAYQIEELMILLEYKIPRNEADGMPINVGDGGLFEKKLWGLKVLQELSQWTVRSIHDLRFISSHQTGIPARGSHYIANNKKM
notes: human ciliary neurotrophic factor, codon optimised gene, plasmid pOPINF-CNTF (Itkonen et al. 2014); also called purified hCNTF; purified His6-hCNTF; source: E. coli Rosetta 2 (DE3) pLysS, purified (Ni-IDA resin, size exclusion chromatography)
For the molecule B1, the binding result in series [2] is “binds”.
